We go through eleven molecules from patent US20220153834A1 (UNIVERSITY HEALTH NETWORK, published 2022).

Residue numbers refer to the chain shown, from its start.

For experiment [1], the target named is T1, Recombinant human TSG-6 (R&D Biosystems, catalog #2104-TS) (human, UniProt P98066 18-277).
T1 construct: Bought protein; also called hTSG-6; Tumor necrosis factor-inducible gene 6 protein
In words: ELISA of hybridoma supernatants on recombinant human TSG-6. Here is the method: (§1) Mouse antibodies directed against mouse TSG-6 protein (mTSG-6) were generated using conventional mouse monoclonal antibody techniques. Briefly, mice (strain SJL/J) were inoculated with KLH-coupled recombinant mouse TSG-6 (R&D Biosystems, catalog #2326-TS). After boosting, antibody titers were determined by ELISA, using a non-relevant His6-tagged protein as a control. Mice selected for fusion were sacrificed and hybridoma fusion was performed using the P3X63Ag8.653 murine myeloma cell line as a fusion partner. Clones were isolated by limiting dilution and selected by ELISA of hybridoma supernatants. Recombinant human TSG-6 (R&D Biosystems, catalog #2104-TS) was used as a substrate for ELISA assays thus facilitating the selection of human- and mouse-cross reactive clones (the two proteins are 92% identical at the amino acid level). Hybridoma mRNA was transcribed to cDNA and amplified by 5′-rapid amplification of cDNA ends (RACE). PCR products were cloned into an appropriate sequencing vector and sequenced by the dideoxy Sanger method. Multiple copies were sequenced to verify the clonality of each clone. Translated protein sequences were entered into the NCBI IgBLAST search tool (Ye, J., et al., 2013, Nucleic Acids Res. 41, W34-40) to identify CDRs.

In experiment [2] the target is T2, Recombinant mouse TSG-6 (R&D Biosystems, catalog #2326-TS) (mouse, UniProt O08859 18-275).
T2 construct: Bought protein, used KLH-coupled as the immunogen; also called mTSG-6
T2 sequence (O08859 18-275 limits assumed): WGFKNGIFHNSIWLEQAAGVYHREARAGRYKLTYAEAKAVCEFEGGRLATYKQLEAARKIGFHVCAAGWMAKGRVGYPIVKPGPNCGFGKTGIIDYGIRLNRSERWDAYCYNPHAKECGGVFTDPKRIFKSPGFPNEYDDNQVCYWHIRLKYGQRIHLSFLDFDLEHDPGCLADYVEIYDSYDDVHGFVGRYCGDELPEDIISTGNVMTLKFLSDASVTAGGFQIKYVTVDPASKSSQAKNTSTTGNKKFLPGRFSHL
In words: hybridoma raised against mouse TSG-6; clone selection by ELISA. As for the experimental part:
as §1
(In an ELISA, binding on a coated surface is turned into a signal by an enzyme label.)

T1 sequence (P98066 18-277 limits assumed): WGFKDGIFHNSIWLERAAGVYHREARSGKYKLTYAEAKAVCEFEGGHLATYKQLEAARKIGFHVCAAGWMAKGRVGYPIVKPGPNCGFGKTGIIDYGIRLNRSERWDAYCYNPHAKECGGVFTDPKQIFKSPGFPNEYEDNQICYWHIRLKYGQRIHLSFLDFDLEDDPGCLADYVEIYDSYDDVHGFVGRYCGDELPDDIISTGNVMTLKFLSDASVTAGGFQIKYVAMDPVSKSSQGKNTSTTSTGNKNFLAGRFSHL

B1: 5D9 (antibody, V domains shown)
VH: QVQLQQSGAELARPGASVKLSCKASDDTFINYGINWVKQRTGQGLEWIGETFPSNGNTFYNEKFKGKATLTADRSSSTTYMELRSLTSEDAAVYFCARHSNLPYFDHWGQGSTLTVSS
VL: DIVMTQSPSSLSVSAGEKVTMSCKSSQSLLNSGNQKNYLAWYQQKPGQPPKLLIYGASTRESGVPERFTGSGSGTDFTLTISSVQAEDLAVYYCQNDHSYPFTFGGGTNLEIKR
notes: Entries as printed include a leader and part of the constant region
With B1, the binding result in experiment [1] and in experiment [2] was “binds” throughout.

B2: anti-TSG-6 antibody of SEQ ID NO: 1 and SEQ ID NO: 2 (first entry of Table 1, clone name not printed) (antibody, IgG1, V domains shown)
VH: QVRLQQSGAELAKPGASVKLSCKASGYTFTSYWMHWVKQRPGQGLEWIGYIIPSSGYTKNKQNFKDKATLTADKSSSTAYMQLSNLTYEDSAVYSCARSDGSYPYYFDYWGQGTTLTVSS
VL: ENVLTQSPAIMSASPGEKVTMTCSASSSVSYMHWYQQKSSTSPKLWIYDTSKLASGVPGRFSGSGSGNSYSLTISSMEAEDVATYYCFQGSGYPLTFGSGTKLEIKR
As to B2, the binding result in experiment [1] and in experiment [2] was “binds” in each case.

B3: 3E1 (antibody, V domains shown)
VH: QVQLQQSGAELAKPGASVRLSCQASGYTFTSYWMHWVKQRPRQGLEWIGYIIPSSGYTKCHQKFKDKATLTADKSSSTAYMQLSSLTYEDSAVYYCARSTSGYPYYFDSWGQGTTLTVSS
VL: B2 VL with K18R, S26T, Y31F, G92W, S99A, I105L
notes: as for B1
With B3, the binding result in experiment [1] and in experiment [2] was “binds” each time.

B4: 5A5 (antibody, V domains shown)
VH: B3 VH with S31T, T58S, S77N, Y80S, S109Y
VL: B2 VL with S26T, G92W, S99A, I105L
notes: as for B1
In the case of B4, the binding result in experiment [1] and in experiment [2] was “binds” each time.

B5: 3E4 (antibody, V domains shown)
VH: QVQLQQPGAELVKPGASVKLSCKASGYTFTSQWMHWVKQRPGQGLEWIGMIHPNSGSTNNNEKFKSKATLTVDKSSSTAYMQLSSLTSEDSAVYYCTRWAMDYWGQGTSVTASS
VL: DVVMTQTPLSLPVSLGDLASISCRSSQSLVHSNGNTYLHWYLQKPGQSPKLLIFKVSNRFSGVPDRFSGSGSGTDFTLKISRVEAEDLGVYFCSQSTHVPWTFGGGTKLEIKR
notes: as for B1
Consider B5, for which the binding result in experiment [1] and in experiment [2] was “binds” each time.

B6: 5B4 (antibody, V domains shown)
VH: QVQLQQPGAELVKPGASVKLSCKASDYTFTNYWMHWVKQRPGRGLEWIGRIDPSSGGAKYNEKFKSKATLTVDKPSSTAYMEFSSLTSEDSAVYYCVRSRYDYDGWFAYWGLGTLVTVSA
VL: DIVMTQAAPSVPVTPGESVSISCRSSKSLLHSNGNTYLYWFLQRPGQSPQLLIYRMSNLASGVPDRFSGSGSGTAFTLRISRVEAEDVGVYYCMQHLEYPFTFGGGTKLEIKR
notes: Its printed constant part differs from that of the other IgG1 entries; Entries as printed include a leader and part of the constant region
B6: the binding result in experiment [1] and in experiment [2] was “binds” throughout.

B7: 3C6 (antibody, V domains shown)
VH: EVQLQQSGPELVKPGASVKIPCKASGYTFTDYNMDWVKQSHGESLEWIGDIYPNNGGTIYNQKFKDKATLTVDKSSSTAYMELRSLTSEDNAVYYCARKTGTGFDYWGQGTTLTVSS
VL: QIVLSQSPAILSASPGEKVTMTCRARSSVIYMHWYQQKPGSSPKPWIYATFNLASGVPARFSGSGSGTSYSLTISRVEAEDAATYYCQQWSSNPPTFGSGTKLEIKR
notes: Entries as printed include a leader and part of the constant region; also called anti-TSG-6 antibody 3C6
B7: the binding result in experiment [1] and in experiment [2] was “binds” throughout.

B8: 4E4 (antibody, V domains shown)
VH: QVQLQQPGAELVKPGASVKLSCKASGYTFTSYWMHWVKQRPGQGLEWIGMIHPNSGSTNYNEKFKNKATLTVDKSSSTAYMQLSSLTSEDSAVYYCAPRMFDDYDDYWGQGTTLTVSS
VL: QIVLTQSPAIMSASLGERVTMTCTASSSVSSSYLHWYQQKPGSSPKLWIYSTSNLASGVPVRFSGSGSGTSYSLTISRMEAEDAATYYCHHYHRSPYTFGGGTKLEIKR
notes: as for B1
For B8, the binding result in experiment [1] and in experiment [2] was “binds” each time.

B9: 1A9 (antibody, V domains shown)
VH: EVQLQQSGPELVKPGASVKISCKASGYTFTDYYMNWVKQSHEKSLEWIGDINPNNGGTSYNQKFMGKATLTVDKSSRTAYMELRSLTSEDSTVYYCARWGIYDRFTYWGQGTLVSVSA
VL: DIKMTQSPSSMYASLGERVTIACKASQDINSFLSWFQQKPGKSPKTLIYRANRLVDGVPSRFSGSGSGQDYSLTISSLEYEDMGIYYCLQYDEFPLTFGAGTKLELKR
notes: as for B1
As for B9, the binding result in experiment [1] and in experiment [2] was “binds” in each case.

B10: 1D7 (antibody, V domains shown)
VH: B9 VH with E42G, S59T, M65K, R77S, T92A, Y102F, L113V, S115T
VL: B9 VL with L15R, A22T
notes: as for B1
Turning to B10, the binding result in experiment [1] and in experiment [2] was “binds” throughout.

B11: 4F1 (antibody, V domains shown)
VH: EVKLVESGGGLVQPGGSLSLSCAASGFTFTDYYMSWVRQPPGKALEWLGFIRHKAKGYTAEYSASVKGRFTISRDNSQSILYLQMNALRAEDSATYYCARLYYYGSPHWYFDVWGTGTTVTVSS
VL: QIVLTQSPAIMSASPGEKVTMTCSASSSVSYMHWYQQKSGTSPKRWIYDTSKLASGVPARFSGSGSGTSYSLTISSMEAEDAATYYCQQWSSNPPTFGSGTELEIKR
notes: as for B1
With B11, the binding result in experiment [1] and in experiment [2] was “binds” throughout.
